Test results as given in US20260185069.

Columns and labels:
[1] = target: Dn29-XTEN32-(GGSS)2-dCas9 fusion (synthetic construct) (UniProt Q99ZW2); assay: cell_activity; settings: HEK293FT, attD donor plasmid, single gRNA near attH1, ddPCR; specificity about 78% of UMIs with guide 3
[2] = system: T1, Dn29 large serine recombinase (Desulfotomaculum nigrificans); assay: cell_activity; settings: HEK293FT, unfused LSR, UMI integration-site mapping
T1 sequence: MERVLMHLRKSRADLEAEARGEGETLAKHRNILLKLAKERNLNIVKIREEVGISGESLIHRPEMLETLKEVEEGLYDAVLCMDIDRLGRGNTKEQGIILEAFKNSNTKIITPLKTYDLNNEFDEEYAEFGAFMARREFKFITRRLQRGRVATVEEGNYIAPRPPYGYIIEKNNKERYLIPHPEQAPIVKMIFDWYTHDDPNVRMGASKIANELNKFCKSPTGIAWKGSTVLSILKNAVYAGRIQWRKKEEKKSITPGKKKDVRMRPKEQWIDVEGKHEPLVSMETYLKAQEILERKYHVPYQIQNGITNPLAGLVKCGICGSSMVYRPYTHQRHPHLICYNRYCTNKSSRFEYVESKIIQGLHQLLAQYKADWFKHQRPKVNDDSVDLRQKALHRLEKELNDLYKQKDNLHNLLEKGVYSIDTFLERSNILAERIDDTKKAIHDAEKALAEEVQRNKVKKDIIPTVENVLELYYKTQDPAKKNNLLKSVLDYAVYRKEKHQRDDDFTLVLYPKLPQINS

Dn29 attH1 pseudosite (chr10:21,130,404, NEBL intron)
activity (% integration) [1]: < 30
activity (% of integrations at site) [2]: 30
